B1: PmUreE-ΔC17 (domain or fragment)
chain: MKKFTQIIDQQKALELTSTEKPKLTLCLTMDERTKSRLKVALSDGQEAGLFLPRGTVLKEGDILLSEEGDVVTIEAAKEQVSTVYSDDPLLLARVCYHLGNRHVPLQIEAGWCRYFHDHVLDDMARGLGATVVVGLEKYQPEPG
notes: UreE of Proteus mirabilis ATCC 12453 with a stop codon inserted after Gly144 (lacks the last 17 residues, the histidine-rich C-terminus); Made from the full-length construct of m1 by a stop codon after Gly144; also called PmUreE-ΔC17 truncation mutant; C-terminally truncated mutant of PmUreE; source: E. coli BL21 (DE3), purified (Ni-NTA, SEC)
B2: Proteus mirabilis UreE (natural protein)
chain: MKKFTQIIDQQKALELTSTEKPKLTLCLTMDERTKSRLKVALSDGQEAGLFLPRGTVLKEGDILLSEEGDVVTIEAAKEQVSTVYSDDPLLLARVCYHLGNRHVPLQIEAGWCRYFHDHVLDDMARGLGATVVVGLEKYQPEPGAYGGSSGGHHHHHDHHH
notes: Cloned from strain ATCC 12453; In the crystal the models end at residue 147 (chain A) and 144 (chain B); the C-terminal tails are not resolved; also called PmUreE; full-length PmUreE

Molecular target: the molecule itself
Experiment: SEC; HiLoad 16/600 Superdex 75, 20 mM HEPES pH 7.5, 100 mM NaCl with or without 1 mM EDTA, 277 K; elution volume compared with molecular weight

Row | Protein | stoichiometry N
1 | B1 | 2
2 | B2 | ~2

Reference: publication PMC13044922, “Molecular structure and nickel-binding capacity of Proteus mirabilis UreE” (Acta Crystallographica Section D: Structural Biology, 2026)
